ELISA binding and % neutralization, single point, Env-pseudotyped virus on TZM-bl data for 1 substance are collected here from US20250197482A1.

The target of assay [1] is K169V variant of CAP256 soluble Env trimer (HIV-1). In words: ELISA, lectin-captured trimer, expression supernatant, single point, OD 450 nm.
Assay [2] has as its target JRFL soluble Env trimer (clade B), stabilized in the prefusion-closed conformation (HIV-1). The assay is described as above.
Assay [3] addresses CAP256 soluble Env trimer (clade C), stabilized in the prefusion-closed conformation (HIV-1). Described as above.
For assay [4], the target named is HIV-1 Env of strain WITO.33 (Env-pseudotyped virus) (HIV-1).
The target of assay [5] is 426C-WITO soluble Env trimer (clade B), stabilized in the prefusion-closed conformation (HIV-1). In words: ELISA, lectin-captured trimer, expression supernatant, single point, OD 450 nm, column 426c-WITO-degly3. (In general: ELISA stands for enzyme-linked immunosorbent assay.)

On to VRC01 (antibody), for which the ELISA binding in assay [1] worked out at 2.65; in assay [2], 2.29; in assay [3] it was 2.31; in assay [5] it was 2.53. For the same substance, the % neutralization, single point, Env-pseudotyped virus on TZM-bl in assay [4] was 0%; with CAP256 wk34c80 (HIV-1) it was 100%.
